Measured values from patent publication US20230279137A1 (EVOTEC INTERNATIONAL, published 2023).

T1: human type I IFN receptor on HEK-Blue IFN-α/β cells (human, UniProt P17181 28-557; P48551 27-515)
T1 sequence (looked up) 1: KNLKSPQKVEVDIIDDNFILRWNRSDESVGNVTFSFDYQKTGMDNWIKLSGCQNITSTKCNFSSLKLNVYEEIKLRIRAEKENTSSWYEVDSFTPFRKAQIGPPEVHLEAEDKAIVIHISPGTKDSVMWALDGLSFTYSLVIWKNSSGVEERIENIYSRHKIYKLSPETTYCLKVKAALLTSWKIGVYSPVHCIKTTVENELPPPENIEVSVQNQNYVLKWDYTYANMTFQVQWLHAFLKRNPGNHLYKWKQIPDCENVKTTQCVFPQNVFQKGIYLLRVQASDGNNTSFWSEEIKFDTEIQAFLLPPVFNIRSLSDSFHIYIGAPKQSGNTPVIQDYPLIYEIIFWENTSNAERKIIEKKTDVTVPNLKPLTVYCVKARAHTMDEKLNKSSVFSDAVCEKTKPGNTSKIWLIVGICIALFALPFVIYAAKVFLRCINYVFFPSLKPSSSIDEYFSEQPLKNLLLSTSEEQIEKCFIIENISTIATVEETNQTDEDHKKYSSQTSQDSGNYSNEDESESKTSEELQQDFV
T1 sequence (looked up) 2: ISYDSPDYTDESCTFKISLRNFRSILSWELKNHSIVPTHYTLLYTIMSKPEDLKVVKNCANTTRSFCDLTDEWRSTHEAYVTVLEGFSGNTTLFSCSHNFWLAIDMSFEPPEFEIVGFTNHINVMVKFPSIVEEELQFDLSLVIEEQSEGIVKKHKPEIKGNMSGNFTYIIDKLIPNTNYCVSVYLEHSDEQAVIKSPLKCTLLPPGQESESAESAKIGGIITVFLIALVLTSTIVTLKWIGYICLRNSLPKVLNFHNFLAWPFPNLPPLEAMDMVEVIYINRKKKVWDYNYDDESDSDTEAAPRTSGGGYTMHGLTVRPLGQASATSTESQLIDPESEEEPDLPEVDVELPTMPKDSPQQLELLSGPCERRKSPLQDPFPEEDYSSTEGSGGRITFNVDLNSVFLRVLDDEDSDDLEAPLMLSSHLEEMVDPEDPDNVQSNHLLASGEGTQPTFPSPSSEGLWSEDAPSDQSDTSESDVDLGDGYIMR


Legend:
Experiment in all cases: cell-based or functional assay
human CD40 [1] = molecular target: T2, human CD40 (human, UniProt P25942 21-277)
T2 sequence (P25942 21-277): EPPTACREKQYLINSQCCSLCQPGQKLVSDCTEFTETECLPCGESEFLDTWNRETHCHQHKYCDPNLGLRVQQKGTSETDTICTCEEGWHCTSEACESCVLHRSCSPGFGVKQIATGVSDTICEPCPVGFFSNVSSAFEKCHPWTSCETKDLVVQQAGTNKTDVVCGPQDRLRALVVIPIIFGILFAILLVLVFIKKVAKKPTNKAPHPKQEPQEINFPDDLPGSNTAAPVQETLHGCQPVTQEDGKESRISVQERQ

[2] = molecular target: T1, human type I IFN receptor on HEK-Blue …
human CD40 [3] = molecular target: T2, human CD40; remark: listed apart in the source

CD40 EC50 (ng/mL), NFκB-SEAP reporter in HEK-Blue CD40L cells (human CD40 [1]) [ng/mL] | IFNβ EC50 (ng/mL), SEAP reporter in HEK-Blue IFN-α/β cells [2] [ng/mL] | EC50 for agonistic CD40, HEK-Blue CD40L cells, experiment of FIG. 3 (human CD40 [3]) [µg/mL] | EC50 on CD40 pathway, HEK-Blue CD40L cells (human CD40 [3]) [µg/mL] | mean EC50 for agonistic CD40, HEK-Blue CD40L cells (human CD40 [3]) [µg/mL] | Binder
39.7 | 2.9 |  |  |  | IFA8 (antibody, human IgG2, kappa) heavy: not shown light: DIQMTQSPSSVSASVGDRVTITCRASQGIYSWLAWYQQKPGKAPNLLIYTASTLQSGVPSRFSGSGSGTDFTLTISSLQPEDFATYYCQQANIFPLTFGGGTKVEIKRTVAAPSVFIFPPSDEQLKSGTASVVCLLNNFYPREAKVQWKVDNALQSGNSQESVTEQDSKDSTYSLSSTLTLSKADYEKHKVYACEVTHQGLSSPVTKSFNRGEC
42.6 | 0.7 |  |  |  | IFA9 (antibody, human IgG2, kappa) heavy: not shown light: DIQMTQSPSSVSASVGDRVTITCRASQGIYSWLAWYQQKPGKAPNLLIYTASTLQSGVPSRFSGSGSGTDFTLTISSLQPEDFATYYCQQANIFPLTFGGGTKVEIKRTVAAPSVFIFPPSDEQLKSGTASVVCLLNNFYPREAKVQWKVDNALQSGNSQESVTEQDSKDSTYSLSSTLTLSKADYEKHKVYACEVTHQGLSSPVTKSFNRGEC
26.5 | 4.5 |  |  |  | IFA10 (antibody, human IgG2, kappa) heavy: not shown light: DIQMTQSPSSVSASVGDRVTITCRASQGIYSWLAWYQQKPGKAPNLLIYTASTLQSGVPSRFSGSGSGTDFTLTISSLQPEDFATYYCQQANIFPLTFGGGTKVEIKRTVAAPSVFIFPPSDEQLKSGTASVVCLLNNFYPREAKVQWKVDNALQSGNSQESVTEQDSKDSTYSLSSTLTLSKADYEKHKVYACEVTHQGLSSPVTKSFNRGEC
 |  | 0.057 | 0.03 to 0.08 | 0.048 | agonistic anti-CD40 antibody CP870,893 (antibody, human IgG2, kappa) heavy: not shown light: DIQMTQSPSSVSASVGDRVTITCRASQGIYSWLAWYQQKPGKAPNLLIYTASTLQSGVPSRFSGSGSGTDFTLTISSLQPEDFATYYCQQANIFPLTFGGGTKVEIKRTVAAPSVFIFPPSDEQLKSGTASVVCLLNNFYPREAKVQWKVDNALQSGNSQESVTEQDSKDSTYSLSSTLTLSKADYEKHKVYACEVTHQGLSSPVTKSFNRGEC
42.8 | 1.78 |  |  |  | IFA11 (antibody, human IgG2, kappa) heavy: not shown light: DIQMTQSPSSVSASVGDRVTITCRASQGIYSWLAWYQQKPGKAPNLLIYTASTLQSGVPSRFSGSGSGTDFTLTISSLQPEDFATYYCQQANIFPLTFGGGTKVEIKRTVAAPSVFIFPPSDEQLKSGTASVVCLLNNFYPREAKVQWKVDNALQSGNSQESVTEQDSKDSTYSLSSTLTLSKADYEKHKVYACEVTHQGLSSPVTKSFNRGEC
182 | 2.34 |  |  |  | IFA20 (antibody, human IgG2, kappa) light: DIQMTQSPSSVSASVGDRVTITCRASQGIYSWLAWYQQKPGKAPNLLIYTASTLQSGVPSRFSGSGSGTDFTLTISSLQPEDFATYYCQQANIFPLTFGGGTKVEIKRTVAAPSVFIFPPSDEQLKSGTASVVCLLNNFYPREAKVQWKVDNALQSGNSQESVTEQDSKDSTYSLSSTLTLSKADYEKHKVYACEVTHQGLSSPVTKSFNRGECAEAAAKEAAAKAAEAAAKEAAAKAMSYNLLGFLQRSSNFQSQKLLWQLNGRLEYCLKDRMNFDIPEEIKQLQQFQKEDAALTIYEMLQNIFAIFRQDSSSTGWNETIVENLLANVYHQINHLKTVLEEKLEKEDFTRGKLMSSLHLKRYYGRILHYLKAKEYSHCAWTIVRVEILRNFYFINRLTGYLRN heavy: not shown
110 | 1.3 |  |  |  | IFA19 (antibody, human IgG2, kappa) light: DIQMTQSPSSVSASVGDRVTITCRASQGIYSWLAWYQQKPGKAPNLLIYTASTLQSGVPSRFSGSGSGTDFTLTISSLQPEDFATYYCQQANIFPLTFGGGTKVEIKRTVAAPSVFIFPPSDEQLKSGTASVVCLLNNFYPREAKVQWKVDNALQSGNSQESVTEQDSKDSTYSLSSTLTLSKADYEKHKVYACEVTHQGLSSPVTKSFNRGECSGGTSGSTSGTGSMSYNLLGFLQRSSNFQSQKLLWQLNGRLEYCLKDRMNFDIPEEIKQLQQFQKEDAALTIYEMLQNIFAIFRQDSSSTGWNETIVENLLANVYHQINHLKTVLEEKLEKEDFTRGKLMSSLHLKRYYGRILHYLKAKEYSHCAWTIVRVEILRNFYFINRLTGYLRN heavy: not shown
74.1 | 1.64 |  |  |  | IFA1 (antibody, human IgG2, kappa) light: DIQMTQSPSSVSASVGDRVTITCRASQGIYSWLAWYQQKPGKAPNLLIYTASTLQSGVPSRFSGSGSGTDFTLTISSLQPEDFATYYCQQANIFPLTFGGGTKVEIKRTVAAPSVFIFPPSDEQLKSGTASVVCLLNNFYPREAKVQWKVDNALQSGNSQESVTEQDSKDSTYSLSSTLTLSKADYEKHKVYACEVTHQGLSSPVTKSFNRGECAEAAAKEAAAKAMSYNLLGFLQRSSNFQCQKLLWQLNGRLEYCLKDRMNFDIPEEIKQLQQFQKEDAALTIYEMLQNIFAIFRQDSSSTGWNETIVENLLANVYHQINHLKTVLEEKLEKEDFTRGKLMSSLHLKRYYGRILHYLKAKEYSHCAWTIVRVEILRNFYFINRLTGYLRN heavy: not shown
111 | 0.14 |  |  |  | IFA2 (antibody, human IgG2, kappa) light: DIQMTQSPSSVSASVGDRVTITCRASQGIYSWLAWYQQKPGKAPNLLIYTASTLQSGVPSRFSGSGSGTDFTLTISSLQPEDFATYYCQQANIFPLTFGGGTKVEIKRTVAAPSVFIFPPSDEQLKSGTASVVCLLNNFYPREAKVQWKVDNALQSGNSQESVTEQDSKDSTYSLSSTLTLSKADYEKHKVYACEVTHQGLSSPVTKSFNRGECAEAAAKEAAAKAMSYNLLGFLQRSSNFQSQKLLWQLNGRLEYCLKDRMNFDIPEEIKQLQQFQKEDAALTIYEMLQNIFAIFRQDSSSTGWNETIVENLLANVYHQINHLKTVLEEKLEKEDFTRGKLMSSLHLKRYYGRILHYLKAKEYSHCAWTIVRVEILRNFYFINRLTGYLRN heavy: not shown
105 | 3.64 |  |  |  | IFA12 (antibody, human IgG2, kappa) light: DIQMTQSPSSVSASVGDRVTITCRASQGIYSWLAWYQQKPGKAPNLLIYTASTLQSGVPSRFSGSGSGTDFTLTISSLQPEDFATYYCQQANIFPLTFGGGTKVEIKRTVAAPSVFIFPPSDEQLKSGTASVVCLLNNFYPREAKVQWKVDNALQSGNSQESVTEQDSKDSTYSLSSTLTLSKADYEKHKVYACEVTHQGLSSPVTKSFNRGECPAPAMSYNLLGFLQRSSNFQCQKLLWQLNGRLEYCLKDRMNFDIPEEIKQLQQFQKEDAALTIYEMLQNIFAIFRQDSSSTGWNETIVENLLANVYHQINHLKTVLEEKLEKEDFTRGKLMSSLHLKRYYGRILHYLKAKEYSHCAWTIVRVEILRNFYFINRLTGYLRN heavy: not shown
192 | 0.7 |  |  |  | IFA13 (antibody, human IgG2, kappa) light: DIQMTQSPSSVSASVGDRVTITCRASQGIYSWLAWYQQKPGKAPNLLIYTASTLQSGVPSRFSGSGSGTDFTLTISSLQPEDFATYYCQQANIFPLTFGGGTKVEIKRTVAAPSVFIFPPSDEQLKSGTASVVCLLNNFYPREAKVQWKVDNALQSGNSQESVTEQDSKDSTYSLSSTLTLSKADYEKHKVYACEVTHQGLSSPVTKSFNRGECPAPAMSYNLLGFLQRSSNFQSQKLLWQLNGRLEYCLKDRMNFDIPEEIKQLQQFQKEDAALTIYEMLQNIFAIFRQDSSSTGWNETIVENLLANVYHQINHLKTVLEEKLEKEDFTRGKLMSSLHLKRYYGRILHYLKAKEYSHCAWTIVRVEILRNFYFINRLTGYLRN heavy: not shown
